Source: paper PMC6582324 (Nucleic Acids Research, 2019)

Assays:
[1] = biological target: T1, SigI1C, C-terminal domain of σI factor SigI1 (C. thermocellum ATCC 27405, UniProt A3DBH0 141-249); experiment: SPR
T1 sequence: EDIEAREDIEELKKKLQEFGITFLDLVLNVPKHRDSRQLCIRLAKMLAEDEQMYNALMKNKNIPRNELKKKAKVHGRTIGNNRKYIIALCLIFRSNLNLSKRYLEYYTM

SigI1C = biological target: T2, SigI1C (Clostridium thermocellum ATCC 27405, UniProt A3DBH0 141-249); experiment: EMSA
T2 sequence: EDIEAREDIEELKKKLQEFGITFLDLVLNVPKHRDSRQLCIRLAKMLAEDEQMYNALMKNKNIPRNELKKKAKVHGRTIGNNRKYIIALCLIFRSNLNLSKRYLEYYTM

SigI1C K209E/R217E = biological target: T3, SigI1C K209E/R217E (Clostridium thermocellum ATCC 27405, UniProt A3DBH0 141-249, K209E;R217E); experiment: EMSA
T3 sequence: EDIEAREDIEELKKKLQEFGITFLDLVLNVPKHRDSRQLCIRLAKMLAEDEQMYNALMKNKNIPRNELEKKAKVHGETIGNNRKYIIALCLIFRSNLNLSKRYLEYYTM

B1: RsgI1N, N-terminal cytoplasmic inhibitory domain of anti-σI factor RsgI1, wild type (domain or fragment, C. thermocellum ATCC 27405)
chain: MNRLGIIYEIQGMKAVVLTSEGEFLIIRRRKDMKVGQQVSFENEDIYNVRGK
- Kd [1]: 0.011 nM

B2: RsgI1N Y8L-E9K (domain or fragment, C. thermocellum ATCC 27405)
chain: MNRLGIILKIQGMKAVVLTSEGEFLIIRRRKDMKVGQQVSFENEDIYNVRGK
- Kd [1]: 0.16 nM

B3: RsgI1N E9G (domain or fragment, C. thermocellum ATCC 27405)
chain: MNRLGIIYGIQGMKAVVLTSEGEFLIIRRRKDMKVGQQVSFENEDIYNVRGK
- Kd [1]: 0.071 nM

B4: RsgI1N Y8L-E9K-V35R (domain or fragment, C. thermocellum ATCC 27405)
chain: MNRLGIILKIQGMKAVVLTSEGEFLIIRRRKDMKRGQQVSFENEDIYNVRGK
- Kd [1]: 9.3 nM

B5: RsgI1N E9K-E21K (domain or fragment, C. thermocellum ATCC 27405)
chain: MNRLGIIYKIQGMKAVVLTSKGEFLIIRRRKDMKVGQQVSFENEDIYNVRGK
- Kd [1]: 0.02 nM

B6: RsgI1N Y8L (domain or fragment, C. thermocellum ATCC 27405)
chain: MNRLGIILEIQGMKAVVLTSEGEFLIIRRRKDMKVGQQVSFENEDIYNVRGK
- Kd [1]: 0.084 nM

B7: RsgI1N F24I (domain or fragment, C. thermocellum ATCC 27405)
chain: MNRLGIIYEIQGMKAVVLTSEGEILIIRRRKDMKVGQQVSFENEDIYNVRGK
- Kd [1]: 0.19 nM

B8: RsgI1N E9K (domain or fragment, C. thermocellum ATCC 27405)
chain: MNRLGIIYKIQGMKAVVLTSEGEFLIIRRRKDMKVGQQVSFENEDIYNVRGK
- Kd [1]: 0.097 nM

B9: RsgI1N Y8I (domain or fragment, C. thermocellum ATCC 27405)
chain: MNRLGIIIEIQGMKAVVLTSEGEFLIIRRRKDMKVGQQVSFENEDIYNVRGK
- Kd [1]: 0.45 nM

B10: RsgI1N E9K-E23K (domain or fragment, C. thermocellum ATCC 27405)
chain: MNRLGIIYKIQGMKAVVLTSEGKFLIIRRRKDMKVGQQVSFENEDIYNVRGK
- Kd [1]: 6.4 nM

B11: RsgI1N V16I (domain or fragment, C. thermocellum ATCC 27405)
chain: MNRLGIIYEIQGMKAIVLTSEGEFLIIRRRKDMKVGQQVSFENEDIYNVRGK
- Kd [1]: 0.36 nM

B12: RsgI1N E23K (domain or fragment, C. thermocellum ATCC 27405)
chain: MNRLGIIYEIQGMKAVVLTSEGKFLIIRRRKDMKVGQQVSFENEDIYNVRGK
- Kd [1]: 0.36 nM

B13: RsgI1N E21K (domain or fragment, C. thermocellum ATCC 27405)
chain: MNRLGIIYEIQGMKAVVLTSKGEFLIIRRRKDMKVGQQVSFENEDIYNVRGK
- Kd [1]: 0.016 nM

B14: RsgI1N V35I (domain or fragment, C. thermocellum ATCC 27405)
chain: MNRLGIIYEIQGMKAVVLTSEGEFLIIRRRKDMKIGQQVSFENEDIYNVRGK
- Kd [1]: 0.023 nM

B15: RsgI1N Y8L-V35R (domain or fragment, C. thermocellum ATCC 27405)
chain: MNRLGIILEIQGMKAVVLTSEGEFLIIRRRKDMKRGQQVSFENEDIYNVRGK
- Kd [1]: 0.04 nM

B16: RsgI1N V35K (domain or fragment, C. thermocellum ATCC 27405)
chain: MNRLGIIYEIQGMKAVVLTSEGEFLIIRRRKDMKKGQQVSFENEDIYNVRGK
- Kd [1]: 0.0065 nM

B17: RsgI1N L18F (domain or fragment, C. thermocellum ATCC 27405)
chain: MNRLGIIYEIQGMKAVVFTSEGEFLIIRRRKDMKVGQQVSFENEDIYNVRGK
- Kd [1]: 0.0031 nM

B18: RsgI1N V16K (domain or fragment, C. thermocellum ATCC 27405)
chain: MNRLGIIYEIQGMKAKVLTSEGEFLIIRRRKDMKVGQQVSFENEDIYNVRGK
- Kd [1]: 2.4 nM

B19: RsgI1N L18I (domain or fragment, C. thermocellum ATCC 27405)
chain: MNRLGIIYEIQGMKAVVITSEGEFLIIRRRKDMKVGQQVSFENEDIYNVRGK
- Kd [1]: 0.67 nM

B20: PSigI1 -35 region (dsDNA)
DNA 1: ATCGATAATATACACAAAAA
DNA 2: TTTTTGTGTATATTATCGAT
- binding result (SigI1C): binds
- binding result (SigI1C K209E/R217E): no binding
